Test results taken from article doi:10.1101/2023.10.06.561269 (bioRxiv, 2023).

Biological target: the molecule itself
Test: cryo-EM structure

Row | Protein | stoichiometry N
1 | V. cholerae FtsX (natural protein) MAVKPGNQKISKTTKSTKSKPRDVKRAKTDSFLAIHFKQAKASFAALWRRPLGNILTLAVISMALALPASLYLLSKNIASVAERVAEPSQLSVYLHIDTPEPRIIVLKDDLERRDEIAKVKYISPQQGLDDLSQYAGFEQAISLLDNATLPAVLVVTPKVDSREQIQTLAKALQAEEGVTDVRMDEDWFARLDAIRHLATIVVISLSSLMLMSVFLIVGNTLRFNVQANKEEIQTMKLIGATDAYILRPYLYSGMWFGLLGAVAAWLLTALMTILLNGAVEALAQLYDSRFRLIGLGWDESLLLLMLGVFLGCVAAKVSAKRHLKEIEPV | 2
2 | V. cholerae FtsE (natural protein) MIRFQQVSKAYRGGRQALQKVDFHLRRGEMAFLGGHSGAGKSTLLKLICAIERPTDGKISFNGHDITRIPNKDIPFLRRNIGIVFQDHRLLMDRSIYDNVALPMRIESISENEIKRRVSAALDKTGLLDKARCLPSQLSGGEQQRVGIARAVVNRPTLLLADEPTGNLDPELSSRVLRLFEEFNRAGVTILLATHDIHLVNSRPQYRHLELNQGFLSEVADYGR | 2
